# Article PMC9372576, “Interaction of the gas vesicle proteins GvpA, GvpC, GvpN, and GvpO of Halobacterium salinarum” (Frontiers in Microbiology, 2022)
# T1: GvpN fused to NGFP or CGFP (Halobacterium salinarum, UniProt Q9HI16 1-347)
# T1 construct: GvpN of the p-vac region of Halobacterium salinarum; gvpN amplified from the p-vac region; GFP fragment at the N- or C-terminus, 14 or 16 aa linker; source: Hfx. volcanii WR340 transformant, split-GFP fusion in living cells
# T1 sequence (looked up): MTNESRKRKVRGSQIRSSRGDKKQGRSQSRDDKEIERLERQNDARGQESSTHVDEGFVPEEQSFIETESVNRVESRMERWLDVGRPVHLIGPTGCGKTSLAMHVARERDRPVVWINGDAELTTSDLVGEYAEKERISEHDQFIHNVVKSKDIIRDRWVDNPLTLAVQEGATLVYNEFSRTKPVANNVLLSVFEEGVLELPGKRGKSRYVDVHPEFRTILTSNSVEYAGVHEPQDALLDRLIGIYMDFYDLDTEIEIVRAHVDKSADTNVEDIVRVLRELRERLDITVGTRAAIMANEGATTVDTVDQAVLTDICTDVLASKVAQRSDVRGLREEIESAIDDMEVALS
# T2: GvpC fused to NGFP or CGFP (Halobacterium salinarum, UniProt P24574 1-382)
# T2 construct: GvpC of the p-vac region of Halobacterium salinarum; gvpC amplified from the p-vac region; GFP fragment at the N- or C-terminus, 14 or 16 aa linker; source: Hfx. volcanii WR340 transformant, split-GFP fusion in living cells
# T2 sequence (looked up): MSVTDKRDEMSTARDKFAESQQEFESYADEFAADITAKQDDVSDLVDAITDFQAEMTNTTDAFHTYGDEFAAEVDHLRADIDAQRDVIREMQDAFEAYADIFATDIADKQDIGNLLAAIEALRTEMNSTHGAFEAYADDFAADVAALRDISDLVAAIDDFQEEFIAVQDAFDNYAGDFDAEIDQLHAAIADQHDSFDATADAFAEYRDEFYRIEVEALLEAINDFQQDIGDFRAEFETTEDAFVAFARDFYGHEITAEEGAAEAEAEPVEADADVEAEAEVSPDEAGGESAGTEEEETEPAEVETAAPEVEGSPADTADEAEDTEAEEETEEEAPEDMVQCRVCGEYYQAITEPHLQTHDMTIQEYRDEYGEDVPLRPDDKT
# T3: GvpA fused to NGFP or CGFP (Halobacterium salinarum, UniProt P08958 1-76)
# T3 construct: the entire GvpA of the p-vac region of Halobacterium salinarum; gvpA reading frame; NGFP (mGFP2 up to aa 157) or CGFP (from aa 158) at the N- or C-terminus through a 14 aa (pJAS) or 16 aa (pWLfdx) linker; with GvpF and its variants CGFP stood at the C-terminus of GvpA (AC); also called NA; AN; source: Hfx. volcanii WR340 transformant, split-GFP fusion in living cells
# T3 sequence (looked up): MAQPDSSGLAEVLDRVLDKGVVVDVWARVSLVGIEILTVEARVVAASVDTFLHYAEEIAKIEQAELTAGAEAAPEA
# T4: GvpA fragment A44-76 (Halobacterium salinarum, UniProt P08958 44-76)
# T4 construct: GvpA of Halobacterium salinarum, mainly helix alpha3; vector described in earlier work; source: Hfx. volcanii WR340 transformant, split-GFP fusion in living cells
# T4 chain (looked up): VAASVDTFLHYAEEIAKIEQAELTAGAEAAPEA
# B1: GvpC C-terminal fragment Cterm (domain or fragment, Halobacterium salinarum, UniProt P24574 329-382, looked up)
# chain: ETEEEAPEDMVQCRVCGEYYQAITEPHLQTHDMTIQEYRDEYGEDVPLRPDDKT
# notes: GvpC of Halobacterium salinarum, aa 329-382, the globular C-terminal domain with a zinc-finger motif; GFP fragment at the N- or C-terminus; source: Hfx. volcanii WR340 transformant, split-GFP fusion in living cells
# B2: GvpA fragment A1-22 (domain or fragment, Halobacterium salinarum, UniProt P08958 1-22, looked up)
# chain: MAQPDSSGLAEVLDRVLDKGVV
# notes: GvpA of Halobacterium salinarum, the first 22 aa including alpha-helix 1; vector described in Winter et al., 2018 and Voelkner et al., 2020; source: Hfx. volcanii WR340 transformant, split-GFP fusion in living cells
# B3: GvpA fragment A1-34 (domain or fragment, Halobacterium salinarum, UniProt P08958 1-34, looked up)
# chain: MAQPDSSGLAEVLDRVLDKGVVVDVWARVSLVGI
# notes: GvpA of Halobacterium salinarum, alpha1 plus beta-sheet 1; vector described in earlier work; source: Hfx. volcanii WR340 transformant, split-GFP fusion in living cells
# B4: GvpA fragment A1-43 (domain or fragment, Halobacterium salinarum, UniProt P08958 1-43, looked up)
# chain: MAQPDSSGLAEVLDRVLDKGVVVDVWARVSLVGIEILTVEARV
# notes: GvpA of Halobacterium salinarum, alpha1-beta1-beta2; vector described in earlier work; source: Hfx. volcanii WR340 transformant, split-GFP fusion in living cells
# B5: GvpA fragment A20-47 (domain or fragment, Halobacterium salinarum, UniProt P08958 20-47, looked up)
# chain: GVVVDVWARVSLVGIEILTVEARVVAAS
# notes: GvpA of Halobacterium salinarum, the two beta-sheets beta1-beta2; vector described in earlier work; source: Hfx. volcanii WR340 transformant, split-GFP fusion in living cells
# Columns and labels:
# Test in all cases: split reporter (BiFC, NanoBiT); split-GFP (NGFP and CGFP of salt-stable mGFP2) in Hfx. volcanii transformants, 24 h 37 °C then 24 h 30 °C; relative fluorescence (rf) against the wild type; the highest of eight tag combinations is given
# [1] = target: T1, GvpN fused to NGFP or CGFP; settings: partners not purified
# [2] = target: T2, GvpC fused to NGFP or CGFP; settings: partners not purified
# [3] = target: T3, GvpA fused to NGFP or CGFP; settings: partners not purified
# [4] = target: B1; settings: partners not purified
# GvpA fragment A1-22 = target: B2; settings: partners not purified
# [5] = target: the molecule itself
# GvpA fragment A20-47 = target: B5; settings: partners not purified
# GvpA fragment A1-43 = target: B4; settings: partners not purified
# GvpA fragment A1-34 = target: B3; settings: partners not purified
# GvpA fragment A44-76 = target: T4, GvpA fragment A44-76; settings: partners not purified
binder,measurement,setting,value
"GvpF fused to NGFP or CGFP (natural protein, Halobacterium salinarum, UniProt Q9HI21 1-213, looked up, GvpF (wild type) of the p-vac region of Halobacterium salinarum; R213 is the very last aa; parent of the GvpF variants; also called Fwt; WT; source: Hfx. volcanii WR340 transformant, split-GFP fusion in living cells) MTENLYTYGIIEQEDLELDVEGVAGAEQVYTVDYKTLSAVVSDIDTTDPERTDEDVEAHNNVLQEVLKHEEERTVVPMSFGMAFKSARTLKGVLRGARRALRSTLNDIEGTVELGVKILGPGDDTVPREEIQENVTDQLADLSINETENDLFTDRLIINKSYLVDFEKRDAFDSAIDDVEAEYDELTIQYTGPWPPYNFVDIHIGAEQQQGGR",relative fluorescence (rf),[1],< 5 LAU/mm^2
same,relative fluorescence (rf),[2],> 7.5 LAU/mm^2
same,relative fluorescence (rf),[3],18 LAU/mm^2
same,relative fluorescence (rf),[4],> 18 LAU/mm^2
"GvpO fused to NGFP or CGFP (natural protein, Halobacterium salinarum, UniProt O51968 1-119, looked up, GvpO of the p-vac region of Halobacterium salinarum; gvpO amplified from the p-vac region; GFP fragment at the N- or C-terminus, 14 or 16 aa linker; source: Hfx. volcanii WR340 transformant, split-GFP fusion in living cells) MADPANDRSEREEGGEDDETPPASDGNPSPSANSFTLSNAQTRAREAAQDLLEHQFEGMIKAESNDEGWRTVVEVVERNAVPDTQDIIGRYEITLDGTGDVTGYELLERYRRGDMKEEL",relative fluorescence (rf),[1],12.5 LAU/mm^2
same,relative fluorescence (rf),[2],< 5 LAU/mm^2
same,relative fluorescence (rf),GvpA fragment A1-22,3 LAU/mm^2
same,relative fluorescence (rf),[5],> 10 LAU/mm^2
B1,relative fluorescence (rf),[5],20.7 LAU/mm^2
same,relative fluorescence (rf),[3],< 2.5 LAU/mm^2
"GvpC N-terminal fragment Nterm (domain or fragment, Halobacterium salinarum, UniProt P24574 10-130, looked up, GvpC of Halobacterium salinarum, amino acids 10-130, the first three alpha-helical repeats; GFP fragment at the N- or C-terminus; source: Hfx. volcanii WR340 transformant, split-GFP fusion in living cells) MSTARDKFAESQQEFESYADEFAADITAKQDDVSDLVDAITDFQAEMTNTTDAFHTYGDEFAAEVDHLRADIDAQRDVIREMQDAFEAYADIFATDIADKQDIGNLLAAIEALRTEMNSTH",relative fluorescence (rf),GvpA fragment A1-22,3.57 LAU/mm^2
same,relative fluorescence (rf),[3],< 2.5 LAU/mm^2
same,relative fluorescence (rf),[4],10.1 LAU/mm^2
B2,relative fluorescence (rf),GvpA fragment A20-47,≤ 0.48 LAU/mm^2
same,relative fluorescence (rf),GvpA fragment A1-43,≤ 0.48 LAU/mm^2
same,relative fluorescence (rf),GvpA fragment A1-34,≤ 0.48 LAU/mm^2
same,relative fluorescence (rf),GvpA fragment A44-76,≤ 0.48 LAU/mm^2
B3,relative fluorescence (rf),GvpA fragment A20-47,≤ 0.48 LAU/mm^2
same,relative fluorescence (rf),GvpA fragment A1-43,≤ 0.48 LAU/mm^2
same,relative fluorescence (rf),GvpA fragment A44-76,≤ 0.48 LAU/mm^2
B4,relative fluorescence (rf),GvpA fragment A20-47,≤ 0.48 LAU/mm^2
same,relative fluorescence (rf),GvpA fragment A44-76,≤ 0.48 LAU/mm^2
B5,relative fluorescence (rf),GvpA fragment A44-76,≤ 0.48 LAU/mm^2
